Experiment [1] addresses T1, human CD38 on target cells (HEK293/hCD20/hCD38, MOLP8, NALM-6, NALM-6/hPD-L1) (human, UniProt P28907 1-300). Put plainly: cell-based or functional assay.
For experiment [2], the target named is T2, Monomeric human CD38 with a c-terminal myc-myc-hexahistidine tag (hCD38.mmH) (human, UniProt P28907 43-300).
T2 construct: also called bsAb3305; not shown: C-terminal myc-myc-hexahistidine tag
Put plainly: SPR (Biacore, 25 C); group summary of Table 8.

In experiment [3] the target is T3, Dimeric human CD28 with a c-terminal mouse Fc tag (hCD28.mFc) (human).
T3 construct: also called bsAb2012; Human CD28 extracellular domain (N19-P152).mFc
Put plainly: SPR (Biacore 3000, 25 C); hCD28.mFc captured on anti-mouse Fc, bsAb injected; 1:1 fit. In general terms: Surface plasmon resonance follows binding to a sensor surface in real time, without labels.
Experimental: (§1) For CD28 kinetic determinations, SPR experiments were performed using a Biacore 3000 instrument at 25° C. Dimeric human CD28 with a c-terminal mouse Fc tag (hCD28.mFc, bsAb2012) were captured for 37 seconds at a flow rate of 8 uL/min on a CM5 anti-mouseFc-(GE)-coupled surface. Approximately 150 RU of hCD28.mFc were captured. […] Dissociation was measured for 10 minutes. The KD and t_{1/2} were calculated by fitting the double-referenced sensorgrams to a 1:1 binding model.

In experiment [4] the target is T1, human CD38 on target cells …. Put plainly: cell-based or functional assay. The source holds these as a separate data set.
For experiment [5] the target is unchanged. Put plainly: cell-based or functional assay. The source holds these as a separate data set.
Experiment [6] has the same target. Put plainly: cell-based or functional assay. This is another data set of the same source.
The target in experiment [7] is T3, Dimeric human CD28 with a c-terminal …. Put plainly: SPR (Biacore, 25 C); group summary of Table 9.
Experimental: as §1
The target of experiment [8] is T2, Monomeric human CD38 with a c-terminal …. Put plainly: SPR (Biacore 3000, 25 C); bsAb captured on anti-human Fc, hCD38.mmH injected; 1:1 fit.
Experimental: For CD38 kinetic determinations, SPR experiments were performed using a Biacore 3000 instrument at 25° C. Antibodies were captured for 37 seconds at a flow rate of 8 uL/min on a CM5 anti-humanFc-(bsAb2567)-coupled surface. Approximately 230 RU of each antibody were captured. […] Dissociation was measured for 10 minutes. The KD and t½ were calculated by fitting the double-referenced sensorgrams to a 1:1 binding model.

B1: bsAb6031 (bispecific antibody, human IgG4 S228P, kappa)
heavy 1: EVQLVESGGGLVQPGRSLRLSCAASGFTFDDYAMHWVRQAPGKGLEWVSGISWKSDNIGYADSVKGRFTISRDNAKNSLYLQMNSLRAEDTALYYCAKALGGWKFDYYYGMDVWGQGTTVTVSSASTKGPSVFPLAPCSRSTSESTAALGCLVKDYFPEPVTVSWNSGALTSGVHTFPAVLQSSGLYSLSSVVTVPSSSLGTKTYTCNVDHKPSNTKVDKRVESKYGPPCPPCPAPPVAGPSVFLFPPKPKDTLMISRTPEVTCVVVDVSQEDPEVQFNWYVDGVEVHNAKTKPREEQFNSTYRVVSVLTVLHQDWLNGKEYKCKVSNKGLPSSIEKTISKAKGQPREPQVYTLPPSQEEMTKNQVSLTCLVKGFYPSDIAVEWESNGQPENNYKTTPPVLDSDGSFFLYSRLTVDKSRWQEGNVFSCSVMHEALHNHYTQKSLSLSLGK
heavy 2: EVQLVESGGGLVQPGGSLRLSCAASGFTFSRNNMHWVRQAPGKGLEYVSGISSNGGRTYYADSVKGRFTISRDNSKNTLYLQMGGLRAADMAVYFCTRDDELLSFDYWGQGTLVTVSSASTKGPSVFPLAPCSRSTSESTAALGCLVKDYFPEPVTVSWNSGALTSGVHTFPAVLQSSGLYSLSSVVTVPSSSLGTKTYTCNVDHKPSNTKVDKRVESKYGPPCPPCPAPPVAGPSVFLFPPKPKDTLMISRTPEVTCVVVDVSQEDPEVQFNWYVDGVEVHNAKTKPREEQFNSTYRVVSVLTVLHQDWLNGKEYKCKVSNKGLPSSIEKTISKAKGQPREPQVYTLPPSQEEMTKNQVSLTCLVKGFYPSDIAVEWESNGQPENNYKTTPPVLDSDGSFFLYSRLTVDKSRWQEGNVFSCSVMHEALHNRFTQKSLSLSPGK
light: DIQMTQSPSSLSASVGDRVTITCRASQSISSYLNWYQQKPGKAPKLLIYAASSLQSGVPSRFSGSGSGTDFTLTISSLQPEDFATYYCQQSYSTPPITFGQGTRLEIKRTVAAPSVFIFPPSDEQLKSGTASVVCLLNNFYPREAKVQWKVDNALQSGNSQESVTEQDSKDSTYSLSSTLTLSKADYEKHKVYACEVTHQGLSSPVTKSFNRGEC
notes: also called anti-CD38×CD28 bispecific antibody
Regarding B1, in experiment [1], the “IFNγ release EC50; T cells + HEK293/hCD20/hCD38, + TAAxCD3 (bsAb1979)” value was determined as 0.294 nM and the “IFNγ release EC50; T cells + MOLP8, + TAAxCD3 (bsAb5458)” value amounted to 0.748 nM. In addition, in experiment [2], the Kd was under 10 nM. Besides, in experiment [3], the Kd was found to be 25.9 nM, the koff turned out to be 0.00149 s⁻¹, the kon came out at 57400 M⁻¹ s⁻¹ and the t½ stood at 7.8 min. Besides, in experiment [4], the “T-cell proliferation EC50; T cells + HEK293/hCD20/hCD38, + TAAxCD3 (bsAb1979)” value amounted to 0.143 nM and the “T-cell proliferation EC50; T cells + MOLP8, + IgG4^P isotype control” value was determined as 0.467 nM. For the same molecule, in experiment [5], the “IL2 release EC50; T cells + HEK293/hCD20/hCD38, + TAAxCD3 (bsAb1979)” value came out at 0.199 nM; the “IL2 release EC50; T cells + MOLP8, + IgG4^P isotype control” value was found to be 0.653 nM; the “IL2 release EC50; T cells + MOLP8, + TAAxCD3 (bsAb5458)” value stood at 1.02 nM. In addition, in experiment [6], the “IL2 release EC50; T cells + NALM-6, + Cemiplimab” value was determined as 2.44 nM; the “IL2 release EC50; T cells + NALM-6, + IgG4^P” value turned out to be 1.68 nM; the “IL2 release EC50; T cells + NALM-6/hPD-L1, + Cemiplimab” value worked out at 4.39 nM; the “IL2 release EC50; T cells + NALM-6/hPD-L1, + IgG4^P” value is 2.64 nM. In experiment [7], the Kd was under 26 nM. Besides, in experiment [8], the Kd stood at 7.08 nM, the off-rate (koff) was 0.000748 s⁻¹, the kon is 106000 M⁻¹ s⁻¹ and the t½ is 15.4 min.

B2: bsAb7945 (bispecific antibody, human IgG4 S228P, kappa)
heavy 1: QVQLVQSGAEVKKPGSSVKVSCKASGGPFRSSSFSWVRQAPGQGLEWMGGIIPILGKTNYAQKFQGRITIVTDESTTTVYMELSSLRSEDTAVFYCVRGSSLFDYWGQGTLVTVSSASTKGPSVFPLAPCSRSTSESTAALGCLVKDYFPEPVTVSWNSGALTSGVHTFPAVLQSSGLYSLSSVVTVPSSSLGTKTYTCNVDHKPSNTKVDKRVESKYGPPCPPCPAPPVAGPSVFLFPPKPKDTLMISRTPEVTCVVVDVSQEDPEVQFNWYVDGVEVHNAKTKPREEQFNSTYRVVSVLTVLHQDWLNGKEYKCKVSNKGLPSSIEKTISKAKGQPREPQVYTLPPSQEEMTKNQVSLTCLVKGFYPSDIAVEWESNGQPENNYKTTPPVLDSDGSFFLYSRLTVDKSRWQEGNVFSCSVMHEALHNHYTQKSLSLSLGK
heavy 2: QVQLQESGPGLVKPSETLSLTCTVSGGSISSYYWSWIRQPPGKGLEWIGYIYYSGITHYNPSLKSRVTISVDTSKIQFSLKLSSVTAADTAVYYCARWGVRRDYYYYGMDVWGQGTTVTVSSASTKGPSVFPLAPCSRSTSESTAALGCLVKDYFPEPVTVSWNSGALTSGVHTFPAVLQSSGLYSLSSVVTVPSSSLGTKTYTCNVDHKPSNTKVDKRVESKYGPPCPPCPAPPVAGPSVFLFPPKPKDTLMISRTPEVTCVVVDVSQEDPEVQFNWYVDGVEVHNAKTKPREEQFNSTYRVVSVLTVLHQDWLNGKEYKCKVSNKGLPSSIEKTISKAKGQPREPQVYTLPPSQEEMTKNQVSLTCLVKGFYPSDIAVEWESNGQPENNYKTTPPVLDSDGSFFLYSRLTVDKSRWQEGNVFSCSVMHEALHNRFTQKSLSLSPGK
light: not shown
Regarding B2, in experiment [1], the “IFNγ release EC50; T cells + HEK293/hCD20/hCD38, + TAAxCD3 (bsAb1979)” value came out at 0.123 nM and the “IFNγ release EC50; T cells + MOLP8, + TAAxCD3 (bsAb5458)” value is 0.00424 nM. Also, in experiment [4], the “T-cell proliferation EC50; T cells + HEK293/hCD20/hCD38, + IgG4^P isotype control” value worked out at 45.6 nM and the “T-cell proliferation EC50; T cells + HEK293/hCD20/hCD38, + TAAxCD3 (bsAb1979)” value stood at 0.000894 nM. Besides, in experiment [5], the “IL2 release EC50; T cells + HEK293/hCD20/hCD38, + IgG4^P isotype control” value came to 41.4 nM; the “IL2 release EC50; T cells + HEK293/hCD20/hCD38, + TAAxCD3 (bsAb1979)” value amounted to 0.00502 nM; the “IL2 release EC50; T cells + MOLP8, + IgG4^P isotype control” value is 0.00971 nM. Moreover, in experiment [6], the “IL2 release EC50; T cells + NALM-6, + Cemiplimab” value was determined as 0.0981 nM; the “IL2 release EC50; T cells + NALM-6/hPD-L1, + Cemiplimab” value stood at 0.143 nM; the “IL2 release EC50; T cells + NALM-6/hPD-L1, + IgG4^P” value is 0.169 nM.

By Kd is commonly meant the equilibrium constant for the complex coming apart. Lower therefore signals a tighter complex. The koff is a measure of how fast the partners let go of each other. A low value points to a long-lived complex. As usually defined, the kon is a measure of how fast the partners come together. Lower therefore signals slow association. As usually defined, the t½ is the time in which the quantity being followed falls by half. Low values mean fast loss, high ones slow loss.

The values above are taken from patent US20220089766A1 (published 2022).
